Laboratory results reported in patent publication US20170128520A1 (E AND B TECHNOLOGIES, published 2017).

Target: T1, endothelial nitric oxide synthase (eNOS) of cultured bovine aorta endothelial cells (BAEC) (bovine, UniProt P29473 2-1205)
T1 sequence (looked up): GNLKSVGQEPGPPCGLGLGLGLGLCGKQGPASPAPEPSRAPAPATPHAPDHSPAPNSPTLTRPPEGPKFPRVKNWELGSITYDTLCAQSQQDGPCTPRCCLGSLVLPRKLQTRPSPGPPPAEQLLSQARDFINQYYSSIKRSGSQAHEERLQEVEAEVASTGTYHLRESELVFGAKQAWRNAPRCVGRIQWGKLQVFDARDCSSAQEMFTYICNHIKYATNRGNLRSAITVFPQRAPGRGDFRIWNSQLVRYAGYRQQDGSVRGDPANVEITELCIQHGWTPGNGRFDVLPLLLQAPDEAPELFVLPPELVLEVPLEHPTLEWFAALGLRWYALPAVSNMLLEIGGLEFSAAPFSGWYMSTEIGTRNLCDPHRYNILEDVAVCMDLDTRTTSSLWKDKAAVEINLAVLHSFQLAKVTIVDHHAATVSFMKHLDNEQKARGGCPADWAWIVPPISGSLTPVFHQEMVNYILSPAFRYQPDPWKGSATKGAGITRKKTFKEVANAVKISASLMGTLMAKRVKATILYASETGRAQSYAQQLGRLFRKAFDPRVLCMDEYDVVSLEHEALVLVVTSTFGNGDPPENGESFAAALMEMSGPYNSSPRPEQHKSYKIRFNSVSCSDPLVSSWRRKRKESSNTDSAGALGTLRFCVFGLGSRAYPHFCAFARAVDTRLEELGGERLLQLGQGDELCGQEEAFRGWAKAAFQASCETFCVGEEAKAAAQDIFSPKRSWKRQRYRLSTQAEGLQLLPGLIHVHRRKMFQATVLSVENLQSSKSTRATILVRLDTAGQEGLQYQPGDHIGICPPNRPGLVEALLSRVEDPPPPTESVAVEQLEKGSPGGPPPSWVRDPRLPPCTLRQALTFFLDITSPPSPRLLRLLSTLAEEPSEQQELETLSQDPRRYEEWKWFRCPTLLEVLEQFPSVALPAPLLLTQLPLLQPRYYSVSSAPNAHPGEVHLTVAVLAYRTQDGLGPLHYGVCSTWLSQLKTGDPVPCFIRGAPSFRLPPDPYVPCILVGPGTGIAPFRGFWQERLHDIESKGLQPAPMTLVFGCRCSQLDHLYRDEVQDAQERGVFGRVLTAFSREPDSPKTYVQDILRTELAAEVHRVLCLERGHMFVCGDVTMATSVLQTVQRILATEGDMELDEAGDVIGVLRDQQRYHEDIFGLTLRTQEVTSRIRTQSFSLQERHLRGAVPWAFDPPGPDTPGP
Assay: cell-based or functional assay

B1: AP-Cav (SEQ ID NO. 2/SEQ ID NO. 5) (peptide)
peptide: RQIKIWFQNRRMKWKKDGIWKASFTTFTVTKYWFYR
EC50 of inhibition of VEGF-induced NO release by BAEC (dose response, non-linear regression): 1.8 µM

B2: Endo5-Cav (SEQ ID NO. 1/SEQ ID NO. 5) (peptide)
peptide: RRPPRDGIWKASFTTFTVTKYWFYR
EC50 of inhibition of VEGF-induced NO release by BAEC (dose response, non-linear regression): 7.5 µM
